According to paper PMC2169334:

Target: ankyrin-B (UniProt Q01484)
UniProt Q01484, sequence (Q01484 whole entry): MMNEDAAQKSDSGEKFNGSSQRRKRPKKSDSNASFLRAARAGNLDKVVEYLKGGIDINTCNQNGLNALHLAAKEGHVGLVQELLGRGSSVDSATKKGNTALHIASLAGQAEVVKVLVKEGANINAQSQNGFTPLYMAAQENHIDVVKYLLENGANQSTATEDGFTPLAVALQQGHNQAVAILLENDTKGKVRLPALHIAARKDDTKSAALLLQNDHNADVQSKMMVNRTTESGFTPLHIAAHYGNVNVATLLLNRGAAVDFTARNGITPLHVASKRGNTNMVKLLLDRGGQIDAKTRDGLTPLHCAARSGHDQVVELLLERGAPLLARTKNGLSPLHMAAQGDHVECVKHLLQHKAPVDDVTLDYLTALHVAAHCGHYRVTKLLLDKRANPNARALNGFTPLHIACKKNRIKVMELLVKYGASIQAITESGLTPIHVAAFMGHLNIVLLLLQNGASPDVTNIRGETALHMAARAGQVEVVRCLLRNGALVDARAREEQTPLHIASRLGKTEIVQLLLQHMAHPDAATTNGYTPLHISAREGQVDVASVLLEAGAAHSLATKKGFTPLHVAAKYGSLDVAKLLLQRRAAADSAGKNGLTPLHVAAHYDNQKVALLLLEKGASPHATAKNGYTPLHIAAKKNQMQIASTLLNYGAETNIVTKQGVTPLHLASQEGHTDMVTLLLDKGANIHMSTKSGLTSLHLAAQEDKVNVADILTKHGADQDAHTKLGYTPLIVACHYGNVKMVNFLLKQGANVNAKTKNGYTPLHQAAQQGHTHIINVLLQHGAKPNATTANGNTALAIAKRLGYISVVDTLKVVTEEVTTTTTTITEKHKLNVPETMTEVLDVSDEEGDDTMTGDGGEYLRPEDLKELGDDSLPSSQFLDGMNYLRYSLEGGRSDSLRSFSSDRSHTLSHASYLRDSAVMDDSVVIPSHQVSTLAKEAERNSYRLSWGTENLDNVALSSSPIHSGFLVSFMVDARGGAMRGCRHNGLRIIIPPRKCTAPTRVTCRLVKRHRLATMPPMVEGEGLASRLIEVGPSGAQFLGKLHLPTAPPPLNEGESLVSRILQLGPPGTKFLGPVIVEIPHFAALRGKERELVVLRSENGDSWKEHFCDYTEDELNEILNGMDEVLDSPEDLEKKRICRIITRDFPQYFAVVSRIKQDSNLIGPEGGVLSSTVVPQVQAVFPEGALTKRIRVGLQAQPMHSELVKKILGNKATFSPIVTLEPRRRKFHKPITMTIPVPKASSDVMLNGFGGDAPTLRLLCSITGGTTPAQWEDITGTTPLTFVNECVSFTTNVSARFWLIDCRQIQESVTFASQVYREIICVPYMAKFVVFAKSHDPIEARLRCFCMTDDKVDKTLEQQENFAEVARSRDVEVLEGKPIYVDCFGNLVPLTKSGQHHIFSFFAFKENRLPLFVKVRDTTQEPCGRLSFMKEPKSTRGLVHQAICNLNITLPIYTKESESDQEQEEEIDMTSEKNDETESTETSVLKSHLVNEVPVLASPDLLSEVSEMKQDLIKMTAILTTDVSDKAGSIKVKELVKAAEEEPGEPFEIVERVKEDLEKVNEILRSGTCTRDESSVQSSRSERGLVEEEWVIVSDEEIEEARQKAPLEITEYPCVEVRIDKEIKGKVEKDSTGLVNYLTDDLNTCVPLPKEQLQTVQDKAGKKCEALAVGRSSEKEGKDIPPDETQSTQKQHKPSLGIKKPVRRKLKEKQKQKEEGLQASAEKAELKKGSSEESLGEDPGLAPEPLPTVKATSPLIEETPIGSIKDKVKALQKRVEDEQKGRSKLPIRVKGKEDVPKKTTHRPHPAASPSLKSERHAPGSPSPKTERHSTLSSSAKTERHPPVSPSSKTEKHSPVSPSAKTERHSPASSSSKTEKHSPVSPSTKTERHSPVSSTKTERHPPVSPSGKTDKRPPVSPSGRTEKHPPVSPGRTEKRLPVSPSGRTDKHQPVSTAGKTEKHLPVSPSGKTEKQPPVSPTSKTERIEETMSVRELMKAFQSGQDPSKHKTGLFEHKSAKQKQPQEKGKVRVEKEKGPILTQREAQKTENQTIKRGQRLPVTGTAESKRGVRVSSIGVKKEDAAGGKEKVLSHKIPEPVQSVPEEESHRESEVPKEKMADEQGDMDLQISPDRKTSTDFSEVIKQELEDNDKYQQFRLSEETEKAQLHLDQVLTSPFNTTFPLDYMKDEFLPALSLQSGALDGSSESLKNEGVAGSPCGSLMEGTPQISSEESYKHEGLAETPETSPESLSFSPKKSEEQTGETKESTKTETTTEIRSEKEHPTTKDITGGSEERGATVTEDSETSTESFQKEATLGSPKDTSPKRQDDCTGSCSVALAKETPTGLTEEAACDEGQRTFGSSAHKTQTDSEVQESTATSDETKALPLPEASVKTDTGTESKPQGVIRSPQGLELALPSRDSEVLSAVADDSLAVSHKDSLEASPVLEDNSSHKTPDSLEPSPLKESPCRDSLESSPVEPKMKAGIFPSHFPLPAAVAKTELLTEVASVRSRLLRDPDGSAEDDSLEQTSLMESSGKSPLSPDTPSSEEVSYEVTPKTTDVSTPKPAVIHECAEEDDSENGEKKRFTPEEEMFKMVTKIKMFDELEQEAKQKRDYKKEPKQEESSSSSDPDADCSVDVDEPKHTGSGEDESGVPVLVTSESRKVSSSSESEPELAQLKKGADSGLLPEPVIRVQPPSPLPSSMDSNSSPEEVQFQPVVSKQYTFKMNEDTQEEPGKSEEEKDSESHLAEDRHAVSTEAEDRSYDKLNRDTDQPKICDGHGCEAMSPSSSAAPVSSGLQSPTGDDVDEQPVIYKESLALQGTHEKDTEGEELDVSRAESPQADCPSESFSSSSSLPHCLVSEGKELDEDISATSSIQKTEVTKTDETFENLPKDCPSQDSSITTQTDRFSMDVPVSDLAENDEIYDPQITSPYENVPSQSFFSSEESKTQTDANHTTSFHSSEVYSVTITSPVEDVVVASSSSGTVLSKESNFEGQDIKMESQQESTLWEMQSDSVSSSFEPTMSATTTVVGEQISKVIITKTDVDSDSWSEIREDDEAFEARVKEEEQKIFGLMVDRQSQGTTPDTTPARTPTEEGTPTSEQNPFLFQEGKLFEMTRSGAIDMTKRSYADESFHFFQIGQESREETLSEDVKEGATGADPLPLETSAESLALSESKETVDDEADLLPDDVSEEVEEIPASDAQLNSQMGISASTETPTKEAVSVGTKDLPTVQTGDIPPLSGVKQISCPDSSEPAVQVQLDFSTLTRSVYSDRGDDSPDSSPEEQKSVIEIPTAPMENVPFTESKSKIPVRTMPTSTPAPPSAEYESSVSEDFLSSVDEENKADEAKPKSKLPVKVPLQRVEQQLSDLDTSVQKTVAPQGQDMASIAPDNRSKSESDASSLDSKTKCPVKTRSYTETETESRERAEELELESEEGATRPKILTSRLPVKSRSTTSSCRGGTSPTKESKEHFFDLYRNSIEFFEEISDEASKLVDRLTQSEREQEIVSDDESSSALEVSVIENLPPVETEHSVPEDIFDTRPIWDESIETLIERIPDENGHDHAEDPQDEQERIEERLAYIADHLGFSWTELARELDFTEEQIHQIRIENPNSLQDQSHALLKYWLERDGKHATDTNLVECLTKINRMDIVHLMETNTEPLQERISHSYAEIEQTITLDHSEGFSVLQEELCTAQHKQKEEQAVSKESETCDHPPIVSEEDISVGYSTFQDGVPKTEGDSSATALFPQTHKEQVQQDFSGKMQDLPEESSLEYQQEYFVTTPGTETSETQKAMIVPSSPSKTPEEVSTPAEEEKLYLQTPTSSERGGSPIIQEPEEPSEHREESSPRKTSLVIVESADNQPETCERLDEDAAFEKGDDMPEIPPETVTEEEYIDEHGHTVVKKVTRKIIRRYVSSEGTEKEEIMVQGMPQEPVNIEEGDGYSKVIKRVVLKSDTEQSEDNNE

IP3 receptor (from UniProt P29994 1-2750)
Kd: 200 nM
